# Measurements published in article PMC3515676.
# B1: human SULT2A1 (hSULT2A1) (Homo sapiens) (protein)
# chain: MSDDFLWFEGIAFPTMGFRSETLRKVRDEFVIRDEDVIILTYPKSGTNWLAEILCLMHSKGDAKWIQSVPIWERSPWVESEIGYTALSETESPRLFSSHLPIQLFPKSFFSSKAKVIYLMRNPRDVLVSGYFFWKNMKFIKKPKSWEEYFEWFCQGTVLYGSWFDHIHGWMPMREEKNFLLLSYEELKQDTGRTIEKICQFLGKTLEPEELNLILKNSSFQSMKENKMSNYSLLSVDYVVDKAQLLRKGVSGDWKNHFTVAQAEDFDKLFQEKMADLPRELFPWE
# Assays:
# Test in all cases: purified protein
# Format in all cases: biochemical, Homo sapiens
# Conditions in all cases: 14 μM PAP[35S], 50 mM Mops pH 7.0, 37 °C
# purified protein [1] = substrate: C[C@H](CCC(=O)NCC(=O)O)[C@H]1CC[C@H]2[C@@H]3[C@H](O)C[C@@H]4C[C@H](O)CC[C@]4(C)[C@H]3CC[C@]12C
# purified protein [2] = substrate: C[C@H](CCC(=O)O)[C@H]1CC[C@H]2[C@@H]3[C@H](O)C[C@@H]4C[C@H](O)CC[C@]4(C)[C@H]3CC[C@]12C
# purified protein [3] = substrate: C[C@H](CCC(=O)O)[C@H]1CC[C@H]2[C@@H]3CC[C@@H]4C[C@H](O)CC[C@]4(C)[C@H]3CC[C@]12C
# purified protein [4] = substrate: C[C@H](CCCO)[C@H]1CC[C@H]2[C@@H]3[C@H](O)C[C@H]4C[C@H](O)CC[C@]4(C)[C@H]3C[C@H](O)[C@]12C
protein,measurement,setting,value
B1,Km,purified protein [1],36.73 ± 2.47 µM
same,Vmax,purified protein [1],0.0038 µmol/min/mg
same,Km,purified protein [2],42.30 ± 2.97 µM
same,Vmax,purified protein [2],0.00395 µmol/min/mg
same,Km,purified protein [3],8.36 ± 0.39 µM
same,Vmax,purified protein [3],0.036 µmol/min/mg
same,Km,purified protein [4],49.38 ± 4.62 µM
same,Vmax,purified protein [4],0.00549 µmol/min/mg
